Test [1] has as its target T1, human CGRP (human/cynomolgus monkey CGRP) (human, not fully specified).
T1 construct: also called human Calcitonin Gene Related Peptide; human CGRP peptide (Bachem H-1470)
T1 peptide: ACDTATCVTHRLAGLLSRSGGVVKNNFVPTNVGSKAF
In words: SPR (Biacore T100 or T200), antibody captured on Protein A, CGRP as analyte, 37 C, n=3. On the procedure:
(§1) Affinity and kinetics of Bispecific Antibody 1 to human/cynomolgus monkey, mouse/rat, and rabbit CGRP are measured using a Biacore T100 or T200 instrument (BIAcore® AB, Upsala, Sweden). Briefly, a protein-A coupled CM5 chip is generated using standard amine-coupling protocols. […] A concentration series of each ligand is injected over all flow cells at 70-100 μL/minute for 180 seconds followed by a 1500-1800 second dissociation phase followed by chip regeneration.
(§2) Data is analyzed by flow-cell 1 reference subtraction along with 0 nM blank subtraction. The on-rate (kₒₙ) and off-rate (koff) for each ligand are fit globally using a “1:1 (Langmuir) Binding” binding model. The affinity (KD) is calculated from the binding kinetics according to the relationship KD=koff/kₒₙ. Stoichiometry of binding is calculated according to the relationship: Stoichiometry=[RUₘₐₓ/RU_{Bispecific Antibody 1}]/[MWantigen/MW_{Bispecific Antibody 1}] where MWantigen is the molecular weight of human CGRP and MW_{Bispecific Antibody 1} is 150 kDa.

The target in test [2] is T2, mouse IL-23 (mouse, UniProt Q9EQ14 22-196; P43432 23-335).
T2 sequence (looked up) 1: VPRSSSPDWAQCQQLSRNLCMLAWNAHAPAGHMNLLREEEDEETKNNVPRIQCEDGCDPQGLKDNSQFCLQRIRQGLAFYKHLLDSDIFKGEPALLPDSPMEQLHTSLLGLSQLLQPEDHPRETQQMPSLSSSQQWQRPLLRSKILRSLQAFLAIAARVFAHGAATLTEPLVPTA
T2 sequence (looked up) 2: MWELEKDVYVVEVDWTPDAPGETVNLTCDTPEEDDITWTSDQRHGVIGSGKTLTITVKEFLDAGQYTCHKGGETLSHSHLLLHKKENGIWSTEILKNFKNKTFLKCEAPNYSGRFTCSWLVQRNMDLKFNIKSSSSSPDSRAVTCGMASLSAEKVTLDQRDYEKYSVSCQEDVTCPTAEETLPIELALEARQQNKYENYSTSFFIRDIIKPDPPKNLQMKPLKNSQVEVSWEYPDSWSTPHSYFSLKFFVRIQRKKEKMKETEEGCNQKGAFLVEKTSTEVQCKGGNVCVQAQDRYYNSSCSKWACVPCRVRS
In words: SPR (Biacore T200), antibody captured on Protein A, steady-state affinity model, 37 C, n=2. As to the method:
Affinity and kinetics of Bispecific Antibody 1 to human, cynomolgus monkey, mouse, rat, and rabbit IL-23 are measured using a Biacore T200 instrument (BIAcore® AB, Upsala, Sweden). Briefly, a protein-A coupled CM5 chip is generated using standard amine-coupling protocols. Bispecific Antibody 1 is diluted to 1 μg/mL in running buffer, and approximately 100 RU is captured to the chip surface. A concentration series of each ligand is injected over all flow cells at 100 μL/minute for 180 seconds followed by a 900 second dissociation phase followed by chip regeneration. Data is analyzed in Biacore T200 Evaluation Software Version 1.0 by flow-cell 1 reference subtraction along with 0 nM blank subtraction. Human, cynomolgus monkey, and rabbit IL-23 data are fit globally using a “1:1 (Langmuir) Binding” binding model to determine the on-rate (kₒₙ) and off-rate (koff) for each ligand. The affinity (KD) is calculated from the binding kinetics according to the relationship KD=koff/kₒₙ. […] Stoichiometry of binding is calculated according to the relationship: Stoichiometry of binding is calculated according to the relationship: Stoichiometry=[RUₘₐₓ/RU_{Bispecific Antibody 1}]/[MWantigen/MW_{Bispecific Antibody 1}] where MWantigen is the molecular weight of human IL-23 and MW_{Bispecific Antibody 1} is 150 kDa. […]

The target in test [3] is T3, human IL-27 (human, UniProt Q8NEV9 29-243; Q14213 21-229).
T3 sequence (looked up) 1: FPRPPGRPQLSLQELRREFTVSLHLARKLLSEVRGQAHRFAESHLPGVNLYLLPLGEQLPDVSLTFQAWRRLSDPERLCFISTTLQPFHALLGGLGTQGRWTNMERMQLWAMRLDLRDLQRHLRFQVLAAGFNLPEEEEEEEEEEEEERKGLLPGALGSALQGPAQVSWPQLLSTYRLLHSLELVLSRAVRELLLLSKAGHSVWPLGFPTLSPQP
T3 sequence (looked up) 2: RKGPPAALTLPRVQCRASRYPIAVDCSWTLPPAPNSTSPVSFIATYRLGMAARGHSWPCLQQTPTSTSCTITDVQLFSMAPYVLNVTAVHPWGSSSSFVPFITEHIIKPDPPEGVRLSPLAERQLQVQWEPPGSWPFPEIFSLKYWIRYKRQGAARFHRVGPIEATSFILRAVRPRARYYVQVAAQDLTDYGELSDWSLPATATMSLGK
As to the kind of experiment: SPR (BIAcore 2000), antibody captured on Protein A.

In test [4] the target is T4, human IL-12 (human, UniProt P29459 23-219; P29460 23-328).
T4 sequence (looked up) 1: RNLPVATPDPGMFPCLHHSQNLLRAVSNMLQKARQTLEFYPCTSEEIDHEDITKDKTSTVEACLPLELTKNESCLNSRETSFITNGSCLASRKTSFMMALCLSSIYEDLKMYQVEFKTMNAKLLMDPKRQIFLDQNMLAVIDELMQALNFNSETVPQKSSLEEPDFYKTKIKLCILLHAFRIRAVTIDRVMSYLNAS
T4 sequence (looked up) 2: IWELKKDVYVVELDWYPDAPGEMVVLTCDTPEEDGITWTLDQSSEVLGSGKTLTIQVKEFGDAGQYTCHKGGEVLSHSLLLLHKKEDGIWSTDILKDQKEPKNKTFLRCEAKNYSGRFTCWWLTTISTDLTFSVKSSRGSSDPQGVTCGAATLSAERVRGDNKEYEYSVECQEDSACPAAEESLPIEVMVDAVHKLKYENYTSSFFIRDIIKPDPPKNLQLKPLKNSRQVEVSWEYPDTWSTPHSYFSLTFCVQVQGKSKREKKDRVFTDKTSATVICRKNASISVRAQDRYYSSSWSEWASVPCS
In words: SPR (BIAcore 2000), antibody captured on Protein A.

Test [5] has as its target T5, human IL-35 (human, UniProt P29459 23-219; Q14213 21-229).
T5 sequence (looked up) 1: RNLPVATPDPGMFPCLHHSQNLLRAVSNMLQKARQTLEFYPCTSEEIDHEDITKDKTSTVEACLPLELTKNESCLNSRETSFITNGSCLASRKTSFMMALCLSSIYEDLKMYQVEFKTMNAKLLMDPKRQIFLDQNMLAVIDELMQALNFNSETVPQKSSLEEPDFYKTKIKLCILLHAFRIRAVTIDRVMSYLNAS
T5 sequence (looked up) 2: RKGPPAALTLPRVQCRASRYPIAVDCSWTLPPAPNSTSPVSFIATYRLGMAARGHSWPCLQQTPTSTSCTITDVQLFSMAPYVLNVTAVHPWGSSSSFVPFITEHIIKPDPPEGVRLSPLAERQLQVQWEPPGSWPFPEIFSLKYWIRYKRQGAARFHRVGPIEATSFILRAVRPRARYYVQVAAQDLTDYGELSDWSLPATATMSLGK
As to the kind of experiment: SPR (BIAcore 2000), antibody captured on Protein A.

Test [6] concerns the target T1, human CGRP (human/cynomolgus monkey …). As to the kind of experiment: SPR (BIAcore 3000), antibody captured on Protein A, after CGRP injections, 25 C.
The target of test [7] is T6, rabbit IL-23 (rabbit, UniProt G1SSM0 20-191).
T6 construct: not shown: The rabbit p40 subunit (IL-12B) of the heterodimer; Any tag or linker of the reagent is also unstated
T6 sequence (p19): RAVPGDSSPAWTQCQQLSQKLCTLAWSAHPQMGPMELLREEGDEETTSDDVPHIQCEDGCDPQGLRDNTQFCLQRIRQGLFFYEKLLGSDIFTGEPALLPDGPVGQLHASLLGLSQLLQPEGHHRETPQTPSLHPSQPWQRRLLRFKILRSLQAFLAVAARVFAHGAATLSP
As to the kind of experiment: SPR (Biacore T200), antibody captured on Protein A, IL-23 as analyte, 37 C, n=1. On the procedure: Affinity and kinetics of Bispecific Antibody 1 to human, cynomolgus monkey, mouse, rat, and rabbit IL-23 are measured using a Biacore T200 instrument (BIAcore® AB, Upsala, Sweden). Briefly, a protein-A coupled CM5 chip is generated using standard amine-coupling protocols. Bispecific Antibody 1 is diluted to 1 μg/mL in running buffer, and approximately 100 RU is captured to the chip surface. A concentration series of each ligand is injected over all flow cells at 100 μL/minute for 180 seconds followed by a 900 second dissociation phase followed by chip regeneration. Data is analyzed in Biacore T200 Evaluation Software Version 1.0 by flow-cell 1 reference subtraction along with 0 nM blank subtraction. Human, cynomolgus monkey, and rabbit IL-23 data are fit globally using a “1:1 (Langmuir) Binding” binding model to determine the on-rate (kₒₙ) and off-rate (koff) for each ligand. The affinity (KD) is calculated from the binding kinetics according to the relationship KD=koff/kₒₙ. Mouse IL-23 binding data is fit using a “Steady State Affinity” binding model to determine affinity (KD). Stoichiometry of binding is calculated according to the relationship: Stoichiometry of binding is calculated according to the relationship: Stoichiometry=[RUₘₐₓ/RU_{Bispecific Antibody 1}]/[MWantigen/MW_{Bispecific Antibody 1}] where MWantigen is the molecular weight of human IL-23 and MW_{Bispecific Antibody 1} is 150 kDa.

The target in test [8] is T7, mouse/rat CGRP (mouse/rat, UniProt P01256 83-119 (rat entry)).
T7 construct: also used as the target of the rat dermal blood flow assay (endogenous rat CGRP)
T7 peptide (looked up): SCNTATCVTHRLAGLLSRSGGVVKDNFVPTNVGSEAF
In words: SPR (Biacore T100 or T200), antibody captured on Protein A, CGRP as analyte, 37 C, n=1. As to the method:
as §1, §2

The target in test [9] is rabbit CGRP (rabbit). The test is described as above. As to the method: as §1, §2

Where only a bound is given, the exact number is not on record here.

B1: Bispecific Antibody 1 (bispecific antibody, human IgG1, kappa, lambda, L234A L235A)
heavy 1: QVQLVQSGAEVKKPGSSVKVSCKASGYTFGNYWMQWVRYAPGQGLEWMGAIYEGTGKTVYIQKFADRVTITADKSTSTAYMELSSLRSEDTAVYYCARLSDYVSGFGYWGRGTTVTVSSASTKGPSVFPLAPCSKSTSGGTAALGCLVKDYFPEPVTVSWNSGALTSGVHTFPAVLQSSGLYSLSSVVTVPSSSLGTQTYICNVNHKPSNTKVDKKVEPDSGDKTHTCPPCPAPEAAGGPSVFLFPPKPKDTLMISRTPEVTCVVVDVSHEDPEVKFNWYVDGVEVHNAKTKPREEQYNSTYRVVSVLTVLHQDWLNGKEYKCKVSNKALPAPIEKTISKAKGQPREPQVYTLPPSRGDMTKNQVQLTCLVKGFYPSDIAVEWESNGQPENNYKTTPPVLDSDGSFFLASKLTVDKSRWQQGNVFSCSVMHEALHNHYTQKSLSLSPG
light 1: DIQMTQSPSSLSASVGDRVTITCRASKDISKYLNWYQRKPGDAPKLLIYYTSGYHSGVPSRFSGSGSGTDFTLTISSLQPEDFATYYCQQGDALPPTFGGGTKVEIKRTVAAPSVFIFPPSKEQLKSGTASVVCLLNNFYPREAKVQWKVDNALQSGNSQESVTEQDSKDSTYSLSSTLTLSKADYEKHKVYACEVTHQGLSSPVTKSFNRGEC
heavy 2: QVQLVQSGAEVKKPGSSVKVSCKASGYPFTRYVMHWVRKAPGQGLEWMGYINPYNDGVNYNEEFKGRVTITADESTSTAYMELSSLRSEDTAVYYCARNWDTGLWGQGTTVTVSSASTKGPSVFPLAPSSKSTSGGTAALGCLVKDYFPEPVTVSWNSGALTSGVATGPAVLQSSGLYSLSSVVTVPSSSLGTQTYICNVNHKPSNTKVDKKVEPKSCDKTHTCPPCPAPEAAGGPSVFLFPPKPKDTLMISRTPEVTCVVVDVSHEDPEVKFNWYVDGVEVHNAKTKPREEQYNSTYRVVSVLTVLHQDWLNGKEYKCKVSNKALPAPIEKTISKAKGQPREPQVSTLPPSREEMTKNQVSLMCLVYGFYPSDIAVEWESNGQPENNYKTTPPVLDSDGSFFLYSVLTVDKSRWQQGNVFSCSVMHEALHNHYTQKSLSLSPG
light 2: RIQMTQSPSSLSASVGDRVTITCKASDHIGKFLTWYQDKPGKAPKLLIYGATSKLTGVPSRFSGSGSGTDFTLTISSLQPEDFATYYCQQYWSTPFTFGGGTKVEIKGQPKAAPSVTLFPPSSEELQANKATLVCYISDFYPGAVTVAWKADSSPVKAGVETTTPSKQSNNKYAAWSYLSLTPEQWKSHRSYSCQVTHEGSTVEKTVAPTEC
notes: Heterodimeric IgG1 with one arm for CGRP and one arm for the p19 subunit of IL-23; also called exemplified bispecific antibody; anti-CGRP/anti-IL-23 IgG bispecific antibody
Turning to B1, the Kd in [1] is 0.0071 nM; in [2], above 100 nM; in test [7], 1020 nM; in test [8] it was 0.169 nM; in test [9], 0.021 nM. Besides, the Stoichiometry in [1] turned out to be 1; in test [7] it was 1; in test [8] it was 0.8; in test [9], 0.9. Besides, the koff in test [1] turned out to be 7.2e-05 s⁻¹; in [7], 0.018 s⁻¹; in test [8], 0.00097 s⁻¹; in test [9], 0.00047 s⁻¹. For the same molecule, the kon in test [1] turned out to be 1.5e+07 M⁻¹ s⁻¹; in test [7], 17000 M⁻¹ s⁻¹; in test [8], 5.7e+06 M⁻¹ s⁻¹; in test [9], 2.3e+07 M⁻¹ s⁻¹. The binding result in test [3], in test [4] and in [5] was “no binding (tested: 400 nM)” throughout. Moreover, the “stoichiometry of human CGRP-to-Bispecific Antibody 1” value in test [6] amounted to 0.8.

Values taken from patent publication US20180319880A1 (Eli Lilly, published 2018).
